# Legend:
# rHJ5Nag = biological target: T1, rHJ5Nag (Microbacterium sp. HJ5, UniProt A0A1W6AQA7); assay: pNP release assay, nonlinear mixed-model inhibition fit; assay type: biochemical; settings: 0.1-1.2 mM pNPGlcNAc; pH 6.0; 45 °C; mixed competitive and noncompetitive inhibition (alpha 3.412); product inhibitor at 5.0 and 10.0 mM
# T1 construct: pEASY-E2 in E. coli BL21 (DE3), purified on Ni-NTA
# T1 sequence (A0A1W6AQA7 21-535): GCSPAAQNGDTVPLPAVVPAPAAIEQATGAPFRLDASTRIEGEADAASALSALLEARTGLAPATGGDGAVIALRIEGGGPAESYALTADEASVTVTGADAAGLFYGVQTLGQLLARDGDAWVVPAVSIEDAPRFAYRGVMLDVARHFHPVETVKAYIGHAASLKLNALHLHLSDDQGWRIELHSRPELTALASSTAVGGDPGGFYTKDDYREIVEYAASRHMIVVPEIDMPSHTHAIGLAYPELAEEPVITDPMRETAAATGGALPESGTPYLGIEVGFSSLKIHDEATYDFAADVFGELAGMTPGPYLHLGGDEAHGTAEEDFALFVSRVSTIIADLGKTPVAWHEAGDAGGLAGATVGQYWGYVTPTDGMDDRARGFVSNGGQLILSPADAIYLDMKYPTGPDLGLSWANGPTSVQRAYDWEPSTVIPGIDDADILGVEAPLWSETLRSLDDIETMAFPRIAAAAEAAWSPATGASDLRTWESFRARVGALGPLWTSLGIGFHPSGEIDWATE
# [1] = substrate: CC(=O)N[C@H]1[C@H](Oc2ccc([N+](=O)[O-])cc2)O[C@H](CO)[C@@H](O)[C@@H]1O; assay: pNP release assay, nonlinear Michaelis-Menten fit; assay type: biochemical, Microbacterium sp. HJ5; settings: pH 6.0, 45 °C, McIlvaine buffer, without added GlcNAc
Ki (rHJ5Nag) [mM],Molecule,Km [1] [µM],kcat [1] [s⁻¹]
14.6,CC(=O)N[C@H]1C(O)O[C@H](CO)[C@@H](O)[C@@H]1O (stereo partly drawn) [N-acetylglucosamine],,
,"rHJ5Nag (Microbacterium sp. HJ5) (protein, pEASY-E2 in E. coli BL21 (DE3), purified on Ni-NTA) GCSPAAQNGDTVPLPAVVPAPAAIEQATGAPFRLDASTRIEGEADAASALSALLEARTGLAPATGGDGAVIALRIEGGGPAESYALTADEASVTVTGADAAGLFYGVQTLGQLLARDGDAWVVPAVSIEDAPRFAYRGVMLDVARHFHPVETVKAYIGHAASLKLNALHLHLSDDQGWRIELHSRPELTALASSTAVGGDPGGFYTKDDYREIVEYAASRHMIVVPEIDMPSHTHAIGLAYPELAEEPVITDPMRETAAATGGALPESGTPYLGIEVGFSSLKIHDEATYDFAADVFGELAGMTPGPYLHLGGDEAHGTAEEDFALFVSRVSTIIADLGKTPVAWHEAGDAGGLAGATVGQYWGYVTPTDGMDDRARGFVSNGGQLILSPADAIYLDMKYPTGPDLGLSWANGPTSVQRAYDWEPSTVIPGIDDADILGVEAPLWSETLRSLDDIETMAFPRIAAAAEAAWSPATGASDLRTWESFRARVGALGPLWTSLGIGFHPSGEIDWATE",520 ± 50,2886 ± 116
